The data set relates to Escherichia coli TOP10. In words: shrunken log2 fold change of peptide-encoding DNA abundance (4.5 h post-induction vs induction); higher = less antimicrobial activity (less host growth inhibition). The following applies: time post-induction: 4.5 h; library: site-saturation at positions 5, 18, 19, 20.
As to RRIRPRPPRLPRPRPRPYCAPRP, the “shrunken log2 fold change” value was -0.312. In the case of RRIRIRPPRLPRPRPRPAEAPRP, the “shrunken log2 fold change” value worked out at 0.0803.

In the case of RRIRMRPPRLPRPRPRPKSLPRP, the “shrunken log2 fold change” value was found to be 0.171. Next, RRIRHRPPRLPRPRPRPQCHPRP: -0.202; RRIRTRPPRLPRPRPRPPQTPRP: 0.457; RRIRRRPPRLPRPRPRPSFKPRP: -0.117.

In the case of RRIRSRPPRLPRPRPRPCDDPRP, the “shrunken log2 fold change” value is 0.161. RRIRYRPPRLPRPRPRPAPLPRP: the “shrunken log2 fold change” value is -0.0323. On to RRIRERPPRLPRPRPRPEMAPRP, for which the “shrunken log2 fold change” value stood at 0.414.

For RRIRKRPPRLPRPRPRPYPQPRP, the “shrunken log2 fold change” value came out at 0.0235. RRIRPRPPRLPRPRPRPPDTPRP: the “shrunken log2 fold change” value worked out at 0.148. On to RRIRFRPPRLPRPRPRPLTYPRP, for which the “shrunken log2 fold change” value was -0.573. As for RRIRMRPPRLPRPRPRPQNDPRP, the figure is -0.179; as for RRIRLRPPRLPRPRPRPQMPPRP, -0.417; as for RRIRVRPPRLPRPRPRPLCWPRP, 0.00832. Turning to RRIRPRPPRLPRPRPRPVDRPRP, the “shrunken log2 fold change” value was determined as 0.115. With RRIRCRPPRLPRPRPRPDSTPRP, the “shrunken log2 fold change” value was -0.235.

For RRIRIRPPRLPRPRPRPIVWPRP, the “shrunken log2 fold change” value was determined as 0.136.

On to RRIRYRPPRLPRPRPRPFLCPRP, for which the “shrunken log2 fold change” value was -1.19. As for RRIRIRPPRLPRPRPRPYFWPRP, the figure is -0.388.

For the sequence RRIRERPPRLPRPRPRPCLKPRP, the “shrunken log2 fold change” value amounted to 0.0135. Consider RRIRLRPPRLPRPRPRPRIMPRP, for which the “shrunken log2 fold change” value was -0.333. Take RRIRFRPPRLPRPRPRPLERPRP: the “shrunken log2 fold change” value is -0.0153. Take RRIRKRPPRLPRPRPRPKRNPRP: the “shrunken log2 fold change” value turned out to be 0.689.

Take RRIRERPPRLPRPRPRPQLLPRP: the “shrunken log2 fold change” value was -0.324.

In the case of RRIRERPPRLPRPRPRPCLFPRP, the “shrunken log2 fold change” value is -0.222. Take RRIRARPPRLPRPRPRPANAPRP: the “shrunken log2 fold change” value was 0.301.

With RRIRQRPPRLPRPRPRPYQLPRP, the “shrunken log2 fold change” value is -0.00448.

Regarding RRIRIRPPRLPRPRPRPPLQPRP, the “shrunken log2 fold change” value came to 0.0345. On to RRIRPRPPRLPRPRPRPSIDPRP, for which the “shrunken log2 fold change” value is -0.598.

For the sequence RRIRYRPPRLPRPRPRPVSHPRP, the “shrunken log2 fold change” value is -0.00492.

On to RRIRCRPPRLPRPRPRPTKAPRP, for which the “shrunken log2 fold change” value was determined as 0.209. Regarding RRIRTRPPRLPRPRPRPVYHPRP, the “shrunken log2 fold change” value is -1.34.

Turning to RRIRSRPPRLPRPRPRPLEDPRP, the “shrunken log2 fold change” value was 0.0492. As for RRIRVRPPRLPRPRPRPQPGPRP, the figure is 0.255; as for RRIRRRPPRLPRPRPRPVRWPRP, 0.825; as for RRIRPRPPRLPRPRPRPYVQPRP, -0.147.

Consider RRIRQRPPRLPRPRPRPVVYPRP, for which the “shrunken log2 fold change” value was 0.12. In the case of RRIRIRPPRLPRPRPRPGVLPRP, the “shrunken log2 fold change” value was -0.0531. On to RRIRYRPPRLPRPRPRPTEYPRP, for which the “shrunken log2 fold change” value is -0.204.

For RRIRQRPPRLPRPRPRPYICPRP, the “shrunken log2 fold change” value was -0.102.

As to RRIRQRPPRLPRPRPRPFHFPRP, the “shrunken log2 fold change” value was -0.0115. On to RRIRVRPPRLPRPRPRPSLRPRP, for which the “shrunken log2 fold change” value came out at 0.133. In the case of RRIRDRPPRLPRPRPRPCGYPRP, the “shrunken log2 fold change” value is 0.0572. As to RRIRHRPPRLPRPRPRPSIDPRP, the “shrunken log2 fold change” value was -0.617. RRIRHRPPRLPRPRPRPPWLPRP: the “shrunken log2 fold change” value amounted to 0.242. Next, RRIRNRPPRLPRPRPRPVDQPRP: -0.213; RRIRIRPPRLPRPRPRPDDAPRP: -0.319. Turning to RRIRIRPPRLPRPRPRPCTAPRP, the “shrunken log2 fold change” value is -0.285. Regarding RRIRHRPPRLPRPRPRPHTIPRP, the “shrunken log2 fold change” value is -0.0571. Next, RRIRTRPPRLPRPRPRPHGQPRP: -0.0788; RRIRMRPPRLPRPRPRPEGHPRP: 2.72. As for RRIRIRPPRLPRPRPRPVLRPRP, the figure is -0.0796. Next, RRIRNRPPRLPRPRPRPLLYPRP: -0.588. RRIRERPPRLPRPRPRPCGGPRP: the “shrunken log2 fold change” value was -0.0228. As for RRIRNRPPRLPRPRPRPYRYPRP, the “shrunken log2 fold change” value was 0.0342. RRIRKRPPRLPRPRPRPYADPRP: the “shrunken log2 fold change” value was -0.0355. As to RRIRSRPPRLPRPRPRPRVTPRP, the “shrunken log2 fold change” value is 0.169. Take RRIRKRPPRLPRPRPRPKTNPRP: the “shrunken log2 fold change” value amounted to 0.485. As for RRIRTRPPRLPRPRPRPQWMPRP, the figure is -0.291. On to RRIRNRPPRLPRPRPRPVDEPRP, for which the “shrunken log2 fold change” value came out at 0.0158. For RRIRGRPPRLPRPRPRPFGRPRP, the “shrunken log2 fold change” value was -0.0748.

As for RRIRKRPPRLPRPRPRPDIEPRP, the “shrunken log2 fold change” value is 2.53.

With RRIRGRPPRLPRPRPRPQDVPRP, the “shrunken log2 fold change” value worked out at 0.0766. Turning to RRIRKRPPRLPRPRPRPIIFPRP, the “shrunken log2 fold change” value was -0.147. Next, RRIRPRPPRLPRPRPRPRNCPRP: 0.0981. As for RRIRVRPPRLPRPRPRPTWWPRP, the “shrunken log2 fold change” value came out at 0.0544. As for RRIRTRPPRLPRPRPRPWNQPRP, the figure is -0.543; as for RRIRLRPPRLPRPRPRPLSYPRP, 0.128; as for RRIRVRPPRLPRPRPRPEIAPRP, -0.0307. As to RRIRRRPPRLPRPRPRPGACPRP, the “shrunken log2 fold change” value was 0.475. RRIRDRPPRLPRPRPRPYQYPRP: the “shrunken log2 fold change” value was -0.0404. Consider RRIRPRPPRLPRPRPRPMPMPRP, for which the “shrunken log2 fold change” value is -0.301. Next, RRIRRRPPRLPRPRPRPIYTPRP: -0.176; RRIRCRPPRLPRPRPRPFGDPRP: -0.00748; RRIRCRPPRLPRPRPRPRYWPRP: -0.0818. On to RRIRPRPPRLPRPRPRPGDFPRP, for which the “shrunken log2 fold change” value was -0.0208. As to RRIRCRPPRLPRPRPRPKHLPRP, the “shrunken log2 fold change” value is -0.122. RRIRMRPPRLPRPRPRPGCRPRP: the “shrunken log2 fold change” value was determined as 1.22.

RRIRERPPRLPRPRPRPQLDPRP: the “shrunken log2 fold change” value amounted to 0.115. Next, RRIRKRPPRLPRPRPRPLHYPRP: -0.00227. With RRIRTRPPRLPRPRPRPSFQPRP, the “shrunken log2 fold change” value is -0.427. In the case of RRIRARPPRLPRPRPRPKHPPRP, the “shrunken log2 fold change” value was found to be 0.199.

For RRIRDRPPRLPRPRPRPCSWPRP, the “shrunken log2 fold change” value was determined as 0.654. RRIRRRPPRLPRPRPRPGPRPRP: the “shrunken log2 fold change” value is 0.917. As for RRIRKRPPRLPRPRPRPHLRPRP, the figure is -0.0961. RRIRLRPPRLPRPRPRPGKYPRP: the “shrunken log2 fold change” value was -0.282. Regarding RRIRMRPPRLPRPRPRPSPSPRP, the “shrunken log2 fold change” value amounted to 0.588. For RRIRWRPPRLPRPRPRPPWGPRP, the “shrunken log2 fold change” value amounted to 0.483. Next, RRIRMRPPRLPRPRPRPNGVPRP: 0.194; RRIRVRPPRLPRPRPRPEWPPRP: 0.225; RRIRYRPPRLPRPRPRPYSSPRP: -0.0396. For the sequence RRIRLRPPRLPRPRPRPGCLPRP, the “shrunken log2 fold change” value is -0.129. Next, RRIRSRPPRLPRPRPRPMPLPRP: -0.0685. Regarding RRIRLRPPRLPRPRPRPPEMPRP, the “shrunken log2 fold change” value was determined as 1.71. As for RRIRSRPPRLPRPRPRPITPPRP, the figure is 0.0356; as for RRIRSRPPRLPRPRPRPTMIPRP, -0.163. For RRIRWRPPRLPRPRPRPAVMPRP, the “shrunken log2 fold change” value is 0.0971.

With RRIRLRPPRLPRPRPRPFLYPRP, the “shrunken log2 fold change” value is -0.656. As for RRIRWRPPRLPRPRPRPEDAPRP, the “shrunken log2 fold change” value amounted to 0.00499. As for RRIRARPPRLPRPRPRPMNNPRP, the figure is -0.186. Consider RRIRARPPRLPRPRPRPGLMPRP, for which the “shrunken log2 fold change” value worked out at 0.524. Next, RRIRARPPRLPRPRPRPPATPRP: 1.63; RRIRNRPPRLPRPRPRPLNDPRP: -0.0316.

In the case of RRIRHRPPRLPRPRPRPAHIPRP, the “shrunken log2 fold change” value is -0.0784.

As to RRIRERPPRLPRPRPRPTSAPRP, the “shrunken log2 fold change” value was determined as 0.153. As for RRIRRRPPRLPRPRPRPLAMPRP, the “shrunken log2 fold change” value is -0.0111. For the sequence RRIRHRPPRLPRPRPRPHHMPRP, the “shrunken log2 fold change” value was -0.324. As for RRIRERPPRLPRPRPRPCSDPRP, the “shrunken log2 fold change” value is -0.5.

On to RRIRMRPPRLPRPRPRPWAGPRP, for which the “shrunken log2 fold change” value worked out at 0.235. Take RRIRVRPPRLPRPRPRPLQQPRP: the “shrunken log2 fold change” value was -0.55. As for RRIRDRPPRLPRPRPRPMVSPRP, the figure is -0.00166; as for RRIRWRPPRLPRPRPRPMDLPRP, -0.214.

Turning to RRIRNRPPRLPRPRPRPGVFPRP, the “shrunken log2 fold change” value turned out to be 0.117. With RRIRQRPPRLPRPRPRPFSKPRP, the “shrunken log2 fold change” value was -0.218. Take RRIRLRPPRLPRPRPRPESVPRP: the “shrunken log2 fold change” value was found to be 0.255.

With RRIRMRPPRLPRPRPRPGVDPRP, the “shrunken log2 fold change” value is 1.68.

For the sequence RRIRDRPPRLPRPRPRPSFMPRP, the “shrunken log2 fold change” value came out at 0.147. Regarding RRIRIRPPRLPRPRPRPAYWPRP, the “shrunken log2 fold change” value is -0.0439. As to RRIRPRPPRLPRPRPRPSFAPRP, the “shrunken log2 fold change” value turned out to be 0.258. RRIRNRPPRLPRPRPRPDIEPRP: the “shrunken log2 fold change” value stood at 0.0309.

Take RRIRNRPPRLPRPRPRPYFIPRP: the “shrunken log2 fold change” value was -0.645. Next, RRIRPRPPRLPRPRPRPLPAPRP: 0.864; RRIRVRPPRLPRPRPRPSWEPRP: -0.0979; RRIRLRPPRLPRPRPRPDSVPRP: 0.0031.

These data come from the supplement of paper PMC9112550, “Optimization of the antimicrobial peptide Bac7 by deep mutational scanning” (BMC Biology, 2022).
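Further: peptides expressed intracellularly from a pBAD plasmid library in pooled LB shake-flask culture, induced with 0.3% L-arabinose, DNA abundance read by NGS, three biological replicates, DESeq2 with apeglm shrinkage.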
